Our source for the binding signal (nm DNA per bound Dps) values is publication PMC4433220.

In this data set the target is Dps (Escherichia coli) (UniProt P0ABT2). Nature of the data set: AFM. As to conditions: EMSA: 50 mM Tris-HCl pH 7.5, 0.1 mM EDTA, 50 mM NaCl, 37°C 30 min, footprinting: 50 mM Tris-HCl pH 8.0, 0.1 mM EDTA, 0.1 mM DTT, 10 mM MgCl2, 50 mM NaCl …. (In general: In EMSA bound probe runs differently from free probe, usually more slowly.)

The substance pET28b nicked with Nt.BspD6I returned a binding signal (nm DNA per bound Dps) (nicked at GAGTC sites (9 sites), 4 nt 3' of the site, top strand) of 117.
The substance pET28b native registered a binding signal (nm DNA per bound Dps) of 135.
